Laboratory results from US20240132593A1 (KINETA, published 2024).
Where “and” joins values, the source holds several entries; their conditions need not be identical. Equal values may be shown once. One block for each binder: values may come before it.

Tests used:
[1] = target: T1, His-tagged recombinant mouse VISTA-ECD (Met 1 to Ala 194) (mouse, UniProt Q9D659 33-194); assay: ELISA endpoint, His-VISTA on plate, mAb at 23 µg/mL
T1 construct: Bought (Sino Biological); not shown: His tag
T1 sequence: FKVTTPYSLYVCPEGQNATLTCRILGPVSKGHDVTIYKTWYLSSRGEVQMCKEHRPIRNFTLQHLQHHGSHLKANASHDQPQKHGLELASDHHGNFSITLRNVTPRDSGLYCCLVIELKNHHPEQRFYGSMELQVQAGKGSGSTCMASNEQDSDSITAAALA

[2] = target: T2, His-tagged recombinant cynomolgus monkey VISTA-ECD (Met 1 to Ala 194) (cynomolgus monkey, UniProt Q9H7M9 33-194 (human entry)); assay: BLI Octet, mAb on AHC sensor, cyno VISTA-ECD-His 300 nM
T2 construct: also called cyno VISTA; Cyno VISTA
T2 chain: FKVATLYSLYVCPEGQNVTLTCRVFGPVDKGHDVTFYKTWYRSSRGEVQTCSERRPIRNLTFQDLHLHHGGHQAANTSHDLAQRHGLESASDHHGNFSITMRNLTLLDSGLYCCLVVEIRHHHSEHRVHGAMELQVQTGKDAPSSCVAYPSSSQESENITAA
Description: (§1) Octet scouting: Antibody affinities were measured using biolayer interferometry (BLI) on the Octet Red 96 (ForteBio) system. Anti-human IgG Fc Capture (AHC) dip and read sensors (ForteBio) were used to capture each anti-VISTA antibody formatted as either an IgG1 or IgG4 and diluted to 20 μg/mL in PBS pH 7.4. AHC sensors were dipped into antibody solution for 180 s to capture each IgG on the sensor. An initial baseline was established by soaking each sensor in PBS pH 7.4 for an additional 120 s. […] Human, cynomolgus monkey, and mouse VISTA-ECD were evaluated. Studies were performed by association with VISTA-ECD for 240 s and dissociation in PBS pH 7.4 for 360 s. Data analysis was performed using Octet Data Analysis software version 9.0.0.14. In general, baseline alignment without subtraction was used for raw data processing. A Savitzky-Golay digital filter was used to remove high-frequency noise, and processed data were globally fit to a 1:1 binding model. Where binding was present, the affinity constant (KD) was calculated for each antibody-antigen pair.

[3] = target: T3, His-tagged recombinant human VISTA-ECD (Met 1 to Ala 194) (human, UniProt Q9H7M9 33-194); assay: BLI Octet, reversed format (avidity): hu VISTA-ECD-His on HIS1K sensor, mAb 133.3 nM
T3 construct: also called hu.VISTA; VISTA-His; not shown: His tag

[4] = target: T3, His-tagged recombinant human VISTA-ECD …; assay: ELISA, His-tagged human VISTA ECD on plate, mAb titrated
Description: (§2) Nickel-coated 96-well ELISA plates (Thermo Scientific) or Maxisorb 96-well polystyrene ELISA plates were coated overnight at 4° C. with 50 μL of a 0.5-1 μg/mL solution of His-tagged VISTA protein (SinoBiological, Met1-Ala194 produced in HE293 cells) in 0.1M NaHCO₃ pH 9.6. All subsequent incubations were performed at room temperature. Wells were washed 3 times with PBST (0.05% Tween 20) and blocked for 2 h with 200 μL 5% BSA in PBST. […] Each antibody dilution was incubated at 50-100 μL/well in the ELISA plate for 1 h, after which plates were washed 3 times with PBST and incubated with a 1:20,000 dilution of Biotin SP AffiniPure Donkey Anti-Human IgG (H+L) polyclonal antibody (Jackson ImmunoResearch, 50-100 μL/well) for 1 h. Wells were washed 3 times with PBST, and the plates were incubated with 50-100 μL of a 1:200 dilution of Streptavidin-HRP (R&D Systems) for 30 min. Wells were washed 3 times with PBST and developed with 100 μL 1-Step Ultra Fast TMB Substrate (Thermo Scientific) for 2 minutes. The reaction was stopped with 100 μL 2N H₂SO₄, and plate well absorbance was measured at 450 nm (Biotek ELx808).
For human VISTA binding data, EC₅₀ values were calculated from nonlinear regression of log-transformed dose-response data.

[5] = target: T4, his-tagged human VISTA-ECD (human, UniProt Q9H7M9 33-194); assay: BLI sandwich binning; VISTA-ECD-His held by capture Ab 321.1 (competitor)
T4 construct: also called hu.VISTA; VISTA protein (Human recombinant, produced in HEK 293 cells, SinoBiologics); not shown: His tag

[6] = target: T4, his-tagged human VISTA-ECD; assay: BLI sandwich binning; VISTA-ECD-His held by capture Ab 457.1 (competitor)
Description: (§3) Octet binning studies: Epitope mapping was performed by BLI on the Octet system. AHC sensors were used to capture anti-VISTA antibody (20 μg/mL) over 100 s. Unbound sites on the sensor were blocked with a saturating amount (50 μg/mL) of pooled purified human IgG for 180 s. Antigen (his-tagged human VISTA-ECD at 100 nM) was bound to immobilized antibody for 180 s, after which the sensor was interrogated for the ability of a paired antibody to bind the antigen in the sandwiched format. Multiple pairing arrangements were interrogated such that each antibody was used as the capture antibody in the format at least one time. Data are represented as response (nm) for the secondary antibody.

[7] = target: T4, his-tagged human VISTA-ECD; assay: BLI sandwich binning; VISTA-ECD-His held by capture Ab 465.1 (competitor)
Description: as §3

[8] = target: T4, his-tagged human VISTA-ECD; assay: BLI sandwich binning; VISTA-ECD-His held by capture Ab VSTB-174 (competitor)
Description: as §3

[9] = target: T4, his-tagged human VISTA-ECD; assay: BLI sandwich binning; VISTA-ECD-His held by capture Ab 173.1 (competitor)
Description: as §3

[10] = target: T5, RFQ-VISTA-ECD-Fc (human); assay: ELISA, 10 ug/mL antibody on plate-bound mutant VISTA-Fc
T5 construct: also called hVISTA ECD-Fc R54A, F62A, Q63A; human VISTA-Fc 54A62A63A
Description: (§4) ELISA was used to measure antibody binding to wild-type and mutant VISTA essentially as described above. VISTA-Fc (5 μg/mL) was immobilized on Maxisorb 96-well ELISA plates and reacted with each antibody diluted to 10 μg/mL in a standard ELISA format. Binding data were reported as absorbance at 450 nm.

[11] = target: T4, his-tagged human VISTA-ECD; assay: BLI sandwich binning; VISTA-ECD-His held by capture Ab 245.1 (competitor)
Description: as §3

[12] = target: T4, his-tagged human VISTA-ECD; assay: BLI sandwich binning; VISTA-ECD-His held by capture Ab 269.1 (competitor)
Description: as §3

[13] = target: T3, His-tagged recombinant human VISTA-ECD …; assay: BLI Octet, mAb on AHC sensor, hu VISTA-ECD-His 50 nM
Description: as §1

[14] = target: T2, His-tagged recombinant cynomolgus …; assay: ELISA endpoint, His-VISTA on plate, mAb at 2 µg/mL
Description: as §2

[15] = target: T3, His-tagged recombinant human VISTA-ECD …; assay: ELISA endpoint, His-VISTA on plate, mAb at 2 µg/mL
Description: as §2

[16] = target: T6, hVISTA ECD-Fc R54A, F62A, Q63A (human); assay: ELISA on immobilized VISTA-Fc (5 µg/mL), antibody at 10 µg/mL
T6 construct: also called human VISTA-Fc 54A62A63A; triple VISTA-Fc mutant
T6 sequence (chain, as listed by the source R54A F62A Q63A R54A F62A Q63A): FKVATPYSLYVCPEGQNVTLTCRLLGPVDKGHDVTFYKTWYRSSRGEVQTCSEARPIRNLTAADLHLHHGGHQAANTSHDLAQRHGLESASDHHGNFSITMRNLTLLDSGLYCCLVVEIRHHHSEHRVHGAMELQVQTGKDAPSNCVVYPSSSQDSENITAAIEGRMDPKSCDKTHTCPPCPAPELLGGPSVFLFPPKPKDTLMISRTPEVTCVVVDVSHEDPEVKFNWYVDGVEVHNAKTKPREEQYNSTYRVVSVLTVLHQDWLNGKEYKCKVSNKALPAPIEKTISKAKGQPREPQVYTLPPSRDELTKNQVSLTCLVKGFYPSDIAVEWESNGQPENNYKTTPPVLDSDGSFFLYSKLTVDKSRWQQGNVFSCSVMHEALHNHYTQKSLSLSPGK
Description: as §4

[17] = target: T7, His-tagged recombinant mouse VISTA-ECD (Met 1 to Ala 194) (Sino Biological) (mouse, UniProt Q9D659 33-194); assay: BLI (Octet Red 96), antibody on AHC sensor
T7 construct: not shown: His tag
T7 sequence: T1 sequence

EC50 [4]: 0.074 µg/mL and 0.5 nM
Response [13]: 0.334
endpoint absorbance (450 nm) [14]: 1.89
endpoint absorbance (450 nm) [15]: 2.02
B3: Antibody No. 833.1 (antibody, human IgG1, kappa)
heavy: not shown
light: EIVLTQSPDFQSVTPKEKVTITCRASQSIGSSLHWYQQKPDQSPKLLIKYASQSISGVPSRFSGSGSGTDFTLTINSLEAEDAAAYYCHQSSSLPQTFGQGTKVEIKRTVAAPSVFIFPPSDEQLKSGTASVVCLLNNFYPREAKVQWKVDNALQSGNSQESVTEQDSKDSTYSLSSTLTLSKADYEKHKVYACEVTHQGLSSPVTKSFNRGEC
notes: Human IgG1, kappa; also called Ab No. 833.1

binding result [16]: binds
binding result [17]: no binding (tested: 50 nM-300 nM)
B4: Antibody No. 833.1 (antibody, human IgG1, kappa)
light: B3 light
heavy: not shown
notes: also called Ab No. 833.1

ELISA Abs 450 nm [10]: 1.56 Abs 450 nm
B5: Antibody No. 833.1 (antibody, human IgG1, kappa)
heavy: not shown
light: B3 light
notes: human IgG1; also called Ab No. 833.1

The next lines start with the binder.

B1: Antibody No. 269.1 (antibody, human IgG1, kappa)
heavy: not shown
light: B3 light
notes: Human IgG1, kappa
endpoint absorbance (450 nm) [1]: 0.079
Response [2]: 0.434
Kd [3]: < 1 pM
EC50 [4]: 0.475 µg/mL

B2: Antibody No. 269.1 (antibody, human IgG1, kappa)
heavy: not shown
light: B3 light
notes: human IgG1
BLI response of secondary antibody [5]: 0.0542 nm
BLI response of secondary antibody [6]: 0.0507 nm
BLI response of secondary antibody [7]: 0.0505 nm
BLI response of secondary antibody [8]: 0.0261 nm
BLI response of secondary antibody [9]: 0.0651 nm
ELISA Abs 450 nm [10]: 1.65 Abs 450 nm
BLI response of secondary antibody [11]: 0.0319 nm
BLI response of secondary antibody [12]: 0.066 nm

B6: Antibody No. 457.1 (antibody, human IgG1, kappa)
heavy: not shown
light: EIVLTQSPATLSLSPGERATLSCGASQSVSSNYLAWYQQKPGLAPRLLIYGASSRATGVPDRFSGSGSGTDFTLTISRLEPEDFAVYYCQQYGYSYTFGQGTKLEIKRTVAAPSVFIFPPSDEQLKSGTASVVCLLNNFYPREAKVQWKVDNALQSGNSQESVTEQDSKDSTYSLSSTLTLSKADYEKHKVYACEVTHQGLSSPVTKSFNRGEC
notes: Human IgG1, kappa
endpoint absorbance (450 nm) [1]: 0.082
Response [2]: 0.456
EC50 [4]: 0.394 µg/mL
endpoint absorbance (450 nm) [14]: 2
endpoint absorbance (450 nm) [15]: 2.04

B7: Antibody No. 457.1 (antibody, human IgG1, kappa)
heavy: not shown
light: B6 light
notes: human IgG1
BLI response of secondary antibody [5]: 0.0481 nm
BLI response of secondary antibody [6]: 0.0481 nm
BLI response of secondary antibody [7]: 0.044 nm
BLI response of secondary antibody [8]: 0.0285 nm
BLI response of secondary antibody [9]: 0.0675 nm
ELISA Abs 450 nm [10]: 1.6 Abs 450 nm
BLI response of secondary antibody [11]: 0.0427 nm
BLI response of secondary antibody [12]: 0.0173 nm
